Target: PpiC of E. faecium (mature PpiC, residues 25–336) (E. faecium)
Assay: SEC-MALS; SEC coupled to light scattering (SEC-LS); 500 micrograms loaded on Superdex 200 increase 10/300 GL (PpiC) or Superdex 75 increase 10/300 GL (PpiC^ΔC); 50 mM Tris-HCl, 150 mM NaCl, 5% glycerol, pH 7.8; 0.5 mL/min

Q: For “PpiC of E. faecium (mature PpiC, residues 25–336) (enzyme)”, which stoichiometry N is on record?
A: The stoichiometry N was 2.
